Measured values from US9315837B2, “Desaturases of a green microalga and uses thereof” (Ben Gurion University of the Negev Research and Development …, priority 2010, dated 2016).

System: supplied fatty acids in S. cerevisiae strain W303
Experiment: Functional expression of PiELO1 in S. cerevisiae fed with fatty acids, GC of FAMEs
Format: cell-based, Saccharomyces cerevisiae
Description: The ORF encoding for PiELO1 was amplified using PfuUltra II fusion HS DNA polymerase (Stratagene, La Jolla, Calif.) with the forward primer, 5′-[…] (PUFAEL5RES1) (SEQ ID NO: 33), containing a restriction site (underlined) and a yeast translation consensus followed by ATG (double underlined) and the reverse primer 5′-[…] (PUFAEL3RES2) (SEQ ID NO: 34) containing a restriction site (underlined) and a stop codon (double underlined). The amplified sequence was then restricted with EcoRI and XbaI (NEB, Ipswich, Mass.). The expected bands were gel-purified with NucleoSpin Extract II purification kit (Machery-Nagel GmbH, Duren, Germany) and ligated into a EcoRI-Xba1 cut pYES2 vector, yielding YpPiELO1. Saccharomyces cerevisiae strain W303 was transformed with YpPiELO1 by the PEG/lithium acetate method. The yeast cells harboring the empty pYES2 vector were used as control. Transformants were selected by uracil prototrophy on yeast synthetic medium (YSM) lacking uracil (Invitrogen, Carlsbad, Calif.). For functional expression, a minimal selection medium containing 2% (w/v) raffinose was inoculated with the YpPiELO1-transformants and grown at 27° C. for 24 h in a water bath shaker. Five ml of sterile YSM, containing 1% (w/v) Tergitol-40 and 250 µM of the appropriate fatty acid was inoculated with raffinose-grown cultures to obtain an OD of 0.2 at 600 nm. Expression was induced by adding galactose to a final concentration of 2% (w/v) and cultures were further grown at 27° C. for 48 h. Cells were harvested by centrifugation, washed twice with 0.1% NaHCO3, freeze-dried and used for fatty acid analysis.
Fatty acid methyl esters (FAMES) were obtained by transmethylation of the freeze-dried P. incisa or yeast biomass, with dry methanol containing 2% H2SO4 (v/v) and heating at 80° C. for 1.5 h while stirring under an argon atmosphere. Gas chromatographic analysis of FAMES was performed on a Thermo Ultra Gas chromatograph (Thermo Scientific, Italy) equipped with PTV injector, FID detector and a fused silica capillary column (30 m×0.32 mm; ZB WAXplus, Phenomenex). FAMES were identified by co-chromatography with authentic standards (Sigma Chemical Co., St. Louis, Mo.; Larodan Fine Chemicals, Malmo, Sweden) and FAME of fish oil (Larodan Fine Chemicals). Each sample was analyzed in duplicates of three independent experiments. The structures of fatty acids were confirmed by GC-MS of their pyrrolidine derivatives [W. W. Christie, The analysis of fatty acids in: W. W. Christie (Ed.), Lipid analysis Isolation, separation, identification and structural analysis of lipids, vol. […]

B1: PiELO1: P. incisa Δ6 PUFA elongase, 289 amino acid residues, SEQ ID NO: 7 (protein, listed as Parietochloris incisa)
chain: MALTAAWHKYDAIVSRFVFDGLRRVGLQEIQGHPSVITAHLPFIASPTPQVTFVLAYLLIVVCGVAALRTRKSSAPREDPAWLRLLVQAHNLVLISLSAYMSSAACYYAWKYGYRFWGTNYSPKERDMGGLIYTFYVSKLYEFVDTLIMLLKGKVEQVSFLHVYHHASISTIWWAIAYVAPGGDAWYCCFLNSLVHVLMYTYYLLATLLGKDAKARRKYLWWGRYLTQFQMFQFVTMMLEAAYTWAYSPYPKFLSKLLFFYMITLLALFANFYAQKHGSSRAAKQKLQ
- elongation of supplied fatty acid (substrate 18:3ω6 (GLA), product DGLA, 20:3ω6): elongated
- elongation of supplied fatty acid (substrate 18:4ω3 (STA), product 20:4ω3): elongated
- elongation of supplied fatty acid (substrate ARA): did not result in their elongation
- elongation of supplied fatty acid (substrate LA): did not result in their elongation
